From article PMC11116469
Blank lines part the entries; values can stand above or below the molecule they belong to.

Experiments:
[1] = target: FUS 6F-G variant (Phe residues of the RBD substituted to Gly) (UniProt P35637); assay: DLS; conditions: 10 µM FUS (RBD, F/Y-G/S), read off a plot
[2] = target: FUS (10D/4E-G) variant (10 Asp and 4 Glu of the RBD substituted to Gly) (UniProt P35637); assay: DLS; conditions: 250 nM FUS (RBD, D/E-G), read off a plot
[3] = target: FUS(R-G) with 24 Arg of the RBD substituted to Gly (UniProt P35637); assay: DLS; conditions: 10 µM FUS (RBD, R-G), read off a plot
[4] = target: FUS(Y-S) with 18 Tyr of the PLCD substituted to Ser (UniProt P35637); assay: DLS; conditions: 10 µM FUS (PLD, Y-S), read off a plot
[5] = target: FUS(Y-S) with 10 Tyr of the PLCD substituted to Ser (UniProt P35637); assay: DLS; conditions: 10 µM FUS (PLD, Y-S), read off a plot
[6] = target: FUS(Y-S) with 27 Tyr of the PLCD substituted to Ser (UniProt P35637); assay: DLS; conditions: 10 µM FUS (PLD, Y-S), read off a plot
[7] = target: FUS 6Y-S variant (Tyr residues of the RBD substituted to Ser) (UniProt P35637); assay: DLS; conditions: 10 µM FUS (RBD, F/Y-G/S), read off a plot
[8] = target: FUS(R-K) with 24 Arg of the RBD substituted to Lys (UniProt P35637); assay: DLS; conditions: read off a plot
[9] = target: T1, SNAP-tagged FUS (Fused in Sarcoma), P35637; assay: nanoparticle tracking analysis (NTA); sub-saturated solutions of one protein in 100 mM KCl and 100 mM KGlu, 25 °C, recorded 6 min after preparation; abundance of mesoscale clusters; conditions: remark: other sources report otherwise
T1 chain: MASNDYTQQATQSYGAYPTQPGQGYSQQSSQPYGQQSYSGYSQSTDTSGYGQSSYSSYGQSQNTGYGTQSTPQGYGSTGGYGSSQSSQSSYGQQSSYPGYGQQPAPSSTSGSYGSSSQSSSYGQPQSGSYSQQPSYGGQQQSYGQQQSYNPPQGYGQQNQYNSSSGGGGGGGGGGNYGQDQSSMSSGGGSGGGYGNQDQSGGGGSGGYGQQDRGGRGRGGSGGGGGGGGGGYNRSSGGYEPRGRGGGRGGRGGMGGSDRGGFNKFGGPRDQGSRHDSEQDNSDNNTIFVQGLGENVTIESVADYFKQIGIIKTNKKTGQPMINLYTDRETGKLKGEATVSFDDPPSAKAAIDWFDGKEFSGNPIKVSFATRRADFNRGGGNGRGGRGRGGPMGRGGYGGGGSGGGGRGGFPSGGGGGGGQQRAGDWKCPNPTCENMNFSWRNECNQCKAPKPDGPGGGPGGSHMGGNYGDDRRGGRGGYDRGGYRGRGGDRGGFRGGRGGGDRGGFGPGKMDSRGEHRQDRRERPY

Molecule: wild-type FUS 6F-G
- response ([1]; KCl buffer): 1.2 Mcps
- response ([1]; KGlu buffer): 1.7 Mcps

Molecule: wild-type FUS 24R-G
- response ([3]; KCl buffer): 1.2 Mcps
- response ([3]; KGlu buffer): 1.8 Mcps

Molecule: wild-type FUS 18Y-S
- response ([4]; KCl buffer): 0.79 Mcps
- response ([4]; KGlu buffer): 1.3 Mcps

Molecule: wild-type FUS 24R-K
- response ([8]; 1 µM FUS (24R-K), KCl buffer): 0.13 Mcps
- response ([8]; 1 µM FUS (24R-K), KGlu buffer): 1.9 Mcps
- response ([8]; 2 µM FUS (24R-K), KCl buffer): 0.32 Mcps
- response ([8]; 2 µM FUS (24R-K), KGlu buffer): 2.4 Mcps
- response ([8]; 3 µM FUS (24R-K), KCl buffer): 1.1 Mcps
- response ([8]; 3 µM FUS (24R-K), KGlu buffer): 3.8 Mcps
- response ([8]; 4 µM FUS (24R-K), KCl buffer): 1.4 Mcps
- response ([8]; 4 µM FUS (24R-K), KGlu buffer): 3.9 Mcps

B1: SNAP-tagged FUS (Fused in Sarcoma), P35637 1-526 (natural protein)
chain: MASNDYTQQATQSYGAYPTQPGQGYSQQSSQPYGQQSYSGYSQSTDTSGYGQSSYSSYGQSQNTGYGTQSTPQGYGSTGGYGSSQSSQSSYGQQSSYPGYGQQPAPSSTSGSYGSSSQSSSYGQPQSGSYSQQPSYGGQQQSYGQQQSYNPPQGYGQQNQYNSSSGGGGGGGGGGNYGQDQSSMSSGGGSGGGYGNQDQSGGGGSGGYGQQDRGGRGRGGSGGGGGGGGGGYNRSSGGYEPRGRGGGRGGRGGMGGSDRGGFNKFGGPRDQGSRHDSEQDNSDNNTIFVQGLGENVTIESVADYFKQIGIIKTNKKTGQPMINLYTDRETGKLKGEATVSFDDPPSAKAAIDWFDGKEFSGNPIKVSFATRRADFNRGGGNGRGGRGRGGPMGRGGYGGGGSGGGGRGGFPSGGGGGGGQQRAGDWKCPNPTCENMNFSWRNECNQCKAPKPDGPGGGPGGSHMGGNYGDDRRGGRGGYDRGGYRGRGGDRGGFRGGRGGGDRGGFGPGKMDSRGEHRQDRRERPY
modifications: here or on the partner: AF488 or AF647 label on the copies used in smFRET and FCS (FUS-SNAP-AF488, FUS-SNAP-AF647); unlabelled in DLS and NTA; AF488 or AF647 label on the copies used in smFRET and FCS (FUS-SNAP-AF488, FUS-SNAP-AF647); unlabelled in DLS and NTA
- relative abundance of mesoscale clusters (100 mM KCl) [9]: 0.2 to 0.4%

Results, then the molecule that gave them:

- response ([2]; KCl buffer): 3.2 Mcps
- response ([2]; KGlu buffer): 3.8 Mcps
Molecule: wild-type FUS 10D/4E-G

- response ([5]; KCl buffer): 0.81 Mcps
- response ([5]; KGlu buffer): 1.9 Mcps
Molecule: wild-type FUS 10Y-S

- response ([6]; KCl buffer): 0.74 Mcps
- response ([6]; KGlu buffer): 0.86 Mcps
Molecule: wild-type FUS 27Y-S

- response ([7]; KCl buffer): 0.49 Mcps
- response ([7]; KGlu buffer): 1.4 Mcps
Molecule: wild-type FUS 6Y-S
